Assay results as given in IntAct's records for PubMed 31515488.

B1: Syntenin-2 (Homo sapiens), Q9H190 (parent)
chain: MSSLYPSLEDLKVDQAIQAQVRASPKMPALPVQATAISPPPVLYPNLAELENYMGLSLSSQEVQESLLQIPEGDSTAVSGPGPGQMVAPVTGYSLGVRRAEIKPGVREIHLCKDERGKTGLRLRKVDQGLFVQLVQANTPASLVGLRFGDQLLQIDGRDCAGWSSHKAHQVVKKASGDKIVVVVRDRPFQRTVTMHKDSMGHVGFVIKKGKIVSLVKGSSAARNGLLTNHYVCEVDGQNVIGLKDKKIMEILATAGNVVTLTIIPSVIYEHMVKKLPPVLLHHTMDHSIPDA
partner: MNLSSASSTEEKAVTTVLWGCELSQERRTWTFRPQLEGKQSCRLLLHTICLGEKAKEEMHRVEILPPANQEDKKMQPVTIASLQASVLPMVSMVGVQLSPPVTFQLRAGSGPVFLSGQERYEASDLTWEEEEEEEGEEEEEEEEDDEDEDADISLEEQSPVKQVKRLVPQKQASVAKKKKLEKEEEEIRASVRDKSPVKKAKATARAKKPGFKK
B2: Migration and invasion-inhibitory protein (Homo sapiens), Q5JXC2 (parent)
chain: MVEAEELAQLRLLNLELLRQLWVGQDAVRRSVARAASESSLESSSSYNSETPSTPETSSTSLSTSCPRGRSSVWGPPDACRGDLRDVARSGVASLPPAKCQHQESLGRPRPHSAPSLGTSSLRDPEPSGRLGDPGPQEAQTPRSILAQQSKLSKPRVTFSEESAVPKRSWRLRPYLGYDWIAGSLDTSSSITSQPEAFFSKLQEFRETNKEECICSHPEPQLPGLRESSGSGVEEDHECVYCYRVNRRLFPVPVDPGTPCRLCRTPRDQQGPGTLAQPAHVRVSIPLSILEPPHRYHIHRRKSFDASDTLALPRHCLLGWDIFPPKSEKSSAPRNLDLWSSVSAEAQHQKLSGTSSPFHPASPMQMLPPTPTWSVPQVPRPHVPRQKP
B3: Zinc finger protein 414 (Homo sapiens), Q96IQ9 (parent)
chain: MEEKPSGPIPDMLATAEPSSSETDKEVLSPAVPAAAPSSSMSEEPGPEQAATPPVWERGGAGGMQQGSSPAPDSCQPGPGPSPGLTSIVSGTSEDLRPPRRRPPPGKQIPCSSPGCCLSFPSVRDLAQHLRTHCPPTQSLEGKLFRCSALSCTETFPSMQELVAHSKLHYKPNRYFKCENCLLRFRTHRSLFKHLHVCAEHAQSPAPPPPPALDREPPAPERPPEVDPASAPGLPFPLLEPFTTPAPAPTGPFLPYLNPAPFGLSPPRLRPFLAAAPGPPASSAAVWKKSQGAGSSPRRPQGGSDAPSGACR
partner: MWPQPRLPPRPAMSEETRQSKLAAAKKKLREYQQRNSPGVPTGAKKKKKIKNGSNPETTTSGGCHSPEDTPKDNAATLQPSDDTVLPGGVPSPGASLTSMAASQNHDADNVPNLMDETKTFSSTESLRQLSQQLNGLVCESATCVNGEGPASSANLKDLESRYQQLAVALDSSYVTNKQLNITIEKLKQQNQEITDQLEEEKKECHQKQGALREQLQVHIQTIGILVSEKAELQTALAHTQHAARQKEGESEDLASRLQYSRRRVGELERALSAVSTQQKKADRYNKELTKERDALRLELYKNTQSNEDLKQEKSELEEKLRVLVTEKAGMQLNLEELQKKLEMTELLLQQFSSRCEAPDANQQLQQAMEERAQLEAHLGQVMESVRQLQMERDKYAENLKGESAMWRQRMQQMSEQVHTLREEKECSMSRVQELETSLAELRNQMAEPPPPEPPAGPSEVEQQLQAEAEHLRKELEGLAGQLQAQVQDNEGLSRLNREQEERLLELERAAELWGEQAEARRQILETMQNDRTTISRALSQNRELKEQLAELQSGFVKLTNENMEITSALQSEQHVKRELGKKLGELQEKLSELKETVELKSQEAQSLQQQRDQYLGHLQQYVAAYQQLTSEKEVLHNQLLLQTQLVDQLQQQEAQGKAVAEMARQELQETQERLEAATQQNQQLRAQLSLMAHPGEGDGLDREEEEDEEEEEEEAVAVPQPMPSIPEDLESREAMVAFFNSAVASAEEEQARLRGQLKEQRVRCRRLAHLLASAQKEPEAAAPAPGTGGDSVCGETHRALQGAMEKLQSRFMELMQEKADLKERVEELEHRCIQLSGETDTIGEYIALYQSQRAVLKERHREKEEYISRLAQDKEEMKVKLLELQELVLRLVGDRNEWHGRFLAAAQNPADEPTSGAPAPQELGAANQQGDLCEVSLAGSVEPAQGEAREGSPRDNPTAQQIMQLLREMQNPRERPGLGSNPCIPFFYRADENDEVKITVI
B4: Protein FAM9B (Homo sapiens), Q8IZU0 (parent)
chain: MAAWGKKHAGKDPVRDECEERNRFTETREEDVTDEHGEREPFAETDEHTGANTKKPEDTAEDLTAKRKRMKMDKTCSKTKNKSKHALRKKQLKRQKRDYIHSLKLLNVLEEYITDEQKEEEEEEGEEEELIRIFQEQQKKWQQYRSVRRERLKEMKLLRDQFVKALEDFEDLCDRVFSDEDSELDN
B5: Late cornified envelope protein 1B (Homo sapiens), Q5T7P3 (parent)
chain: MSCQQNQQQCQPPPKCIPKCPPKCLTPRCPPKCPPKCPPVSSCCSVSSGGCCGSSSGGSCGSSSGGCCSSGGGGCCLSHHRRRRSHCHRPQSSGCCSQPSGGSSCCGGGSGQHSGGCC

Variants of: B1
Settings: with npm2_human NPM2, Q86SE8

Row | Variant | effect of a mutation on the interaction
1 | G225R | disrupting interaction strength
2 | G242R | disrupting interaction strength
3 | V182M | with no effect

Variants of: B2
Settings: with stk16_human STK16, O75716
Sequence of stk16_human STK16, O75716 (O75716 whole entry): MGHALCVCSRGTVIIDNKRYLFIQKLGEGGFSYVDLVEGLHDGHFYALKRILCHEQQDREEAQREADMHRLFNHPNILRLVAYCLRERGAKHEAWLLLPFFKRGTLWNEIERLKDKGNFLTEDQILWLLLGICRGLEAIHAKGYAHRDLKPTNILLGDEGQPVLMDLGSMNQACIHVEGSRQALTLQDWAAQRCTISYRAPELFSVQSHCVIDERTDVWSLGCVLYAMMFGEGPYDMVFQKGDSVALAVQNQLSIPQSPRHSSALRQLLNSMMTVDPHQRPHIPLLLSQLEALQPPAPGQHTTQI

Row | Variant | effect of a mutation on the interaction
4 | R171C | with no effect

Variants of: B3
Settings: with goga2_human GOLGA2, Q08379

Row | Variant | effect of a mutation on the interaction
5 | S166G | with no effect
6 | P77S | with no effect

Variants of: B4
Settings: with dapk2_human DAPK2, Q9UIK4
Sequence of dapk2_human DAPK2, Q9UIK4 (Q9UIK4 whole entry, looked up): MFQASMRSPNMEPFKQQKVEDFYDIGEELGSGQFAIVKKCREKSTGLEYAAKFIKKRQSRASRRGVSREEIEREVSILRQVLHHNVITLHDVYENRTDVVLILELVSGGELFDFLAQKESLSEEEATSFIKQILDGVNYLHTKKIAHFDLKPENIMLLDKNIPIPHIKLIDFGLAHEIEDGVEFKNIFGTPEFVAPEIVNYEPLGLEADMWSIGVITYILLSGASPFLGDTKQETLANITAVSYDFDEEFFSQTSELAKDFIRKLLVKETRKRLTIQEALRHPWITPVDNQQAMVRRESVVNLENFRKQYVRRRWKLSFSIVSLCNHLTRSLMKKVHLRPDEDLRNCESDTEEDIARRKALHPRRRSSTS

Row | Variant | effect of a mutation on the interaction
7 | R23H | with no effect

Variants of: B4
Settings: with tr61b_human TRMT61B

Row | Variant | effect of a mutation on the interaction
8 | R23H | with no effect

Variants of: B4
Settings: with pin4_human PIN4, Q9Y237
Sequence of pin4_human PIN4, Q9Y237 (Q9Y237 whole entry): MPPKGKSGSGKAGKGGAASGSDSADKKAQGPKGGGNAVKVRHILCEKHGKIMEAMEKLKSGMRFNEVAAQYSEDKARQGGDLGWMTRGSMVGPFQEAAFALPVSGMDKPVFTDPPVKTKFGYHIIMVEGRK

Row | Variant | effect of a mutation on the interaction
9 | R23H | with no effect

Variants of: B4
Settings: with cc106_human CCDC106, Q9BWC9
Sequence of cc106_human CCDC106, Q9BWC9 (Q9BWC9 whole entry): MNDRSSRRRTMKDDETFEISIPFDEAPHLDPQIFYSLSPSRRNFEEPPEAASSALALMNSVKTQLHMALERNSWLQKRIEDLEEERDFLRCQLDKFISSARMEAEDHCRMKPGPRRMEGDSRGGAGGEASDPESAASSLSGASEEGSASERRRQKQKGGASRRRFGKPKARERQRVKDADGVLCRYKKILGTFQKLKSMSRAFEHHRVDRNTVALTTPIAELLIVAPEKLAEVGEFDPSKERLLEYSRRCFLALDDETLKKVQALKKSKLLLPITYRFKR

Row | Variant | effect of a mutation on the interaction
10 | R23H | with no effect

Variants of: B4
Settings: with eftu_human TUFM

Row | Variant | effect of a mutation on the interaction
11 | R23H | with no effect

Variants of: B4
Settings: with xrcc4_human XRCC4, Q13426
Sequence of xrcc4_human XRCC4, Q13426 (Q13426 whole entry): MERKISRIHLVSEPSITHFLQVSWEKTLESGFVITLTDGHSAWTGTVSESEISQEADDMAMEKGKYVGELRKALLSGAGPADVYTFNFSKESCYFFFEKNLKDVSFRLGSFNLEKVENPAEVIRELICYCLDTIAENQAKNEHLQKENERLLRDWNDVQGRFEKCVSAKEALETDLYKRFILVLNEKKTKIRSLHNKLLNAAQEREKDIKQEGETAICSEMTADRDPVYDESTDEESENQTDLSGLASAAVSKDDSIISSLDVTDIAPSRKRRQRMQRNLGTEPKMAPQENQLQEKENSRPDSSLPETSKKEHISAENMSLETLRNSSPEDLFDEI

Row | Variant | effect of a mutation on the interaction
12 | R23H | with no effect

Variants of: B4
Settings: with daxx_human DAXX

Row | Variant | effect of a mutation on the interaction
13 | R23H | with no effect

Variants of: B5
Settings: with hxa1_human HOXA1, P49639
Sequence of hxa1_human HOXA1, P49639 (P49639 whole entry): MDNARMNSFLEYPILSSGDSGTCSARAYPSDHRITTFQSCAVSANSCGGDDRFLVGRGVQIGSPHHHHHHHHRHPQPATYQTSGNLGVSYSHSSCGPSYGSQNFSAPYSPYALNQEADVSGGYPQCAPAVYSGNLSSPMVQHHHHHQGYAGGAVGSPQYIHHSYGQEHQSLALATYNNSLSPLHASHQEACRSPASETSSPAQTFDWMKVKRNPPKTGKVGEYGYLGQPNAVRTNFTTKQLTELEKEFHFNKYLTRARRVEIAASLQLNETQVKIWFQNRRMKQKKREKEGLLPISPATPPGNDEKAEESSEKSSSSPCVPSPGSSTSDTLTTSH

Row | Variant | effect of a mutation on the interaction
14 | G108E | with no effect
15 | C51Y | with no effect
16 | H113Q | with no effect

Variants of: B5
Settings: with nt2na_human NOTCH2NLA

Row | Variant | effect of a mutation on the interaction
17 | G108E | with no effect
18 | C51Y | with no effect
19 | H113Q | with no effect

Variants of: B5
Settings: with kr101_human KRTAP10-1, P60331
Sequence of kr101_human KRTAP10-1, P60331 (P60331 whole entry): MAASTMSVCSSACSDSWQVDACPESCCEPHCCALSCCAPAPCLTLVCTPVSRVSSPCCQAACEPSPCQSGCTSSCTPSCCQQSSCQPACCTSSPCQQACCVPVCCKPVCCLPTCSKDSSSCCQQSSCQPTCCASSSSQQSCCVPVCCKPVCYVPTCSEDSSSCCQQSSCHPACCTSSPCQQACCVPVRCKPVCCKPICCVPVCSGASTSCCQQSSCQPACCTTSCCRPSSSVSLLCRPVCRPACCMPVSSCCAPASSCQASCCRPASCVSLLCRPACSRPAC

Row | Variant | effect of a mutation on the interaction
20 | G108E | with no effect
21 | C51Y | with no effect
22 | H113Q | with no effect

Variants of: B5
Settings: with otx1_human OTX1, P32242
Sequence of otx1_human OTX1, P32242 (P32242 whole entry): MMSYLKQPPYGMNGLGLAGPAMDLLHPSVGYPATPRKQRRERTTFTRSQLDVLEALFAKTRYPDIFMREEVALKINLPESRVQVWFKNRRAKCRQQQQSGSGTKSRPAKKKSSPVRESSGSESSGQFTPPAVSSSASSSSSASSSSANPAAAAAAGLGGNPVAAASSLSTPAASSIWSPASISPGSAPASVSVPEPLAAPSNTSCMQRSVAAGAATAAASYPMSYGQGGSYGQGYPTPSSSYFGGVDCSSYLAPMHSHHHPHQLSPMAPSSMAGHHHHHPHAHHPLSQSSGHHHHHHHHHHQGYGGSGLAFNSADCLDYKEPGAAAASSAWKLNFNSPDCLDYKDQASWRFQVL

Row | Variant | effect of a mutation on the interaction
23 | G108E | with no effect
24 | C51Y | with no effect
25 | H113Q | with no effect

Variants of: B5
Settings: with rgs20_human RGS20, O76081
Sequence of rgs20_human RGS20, O76081 (O76081 whole entry): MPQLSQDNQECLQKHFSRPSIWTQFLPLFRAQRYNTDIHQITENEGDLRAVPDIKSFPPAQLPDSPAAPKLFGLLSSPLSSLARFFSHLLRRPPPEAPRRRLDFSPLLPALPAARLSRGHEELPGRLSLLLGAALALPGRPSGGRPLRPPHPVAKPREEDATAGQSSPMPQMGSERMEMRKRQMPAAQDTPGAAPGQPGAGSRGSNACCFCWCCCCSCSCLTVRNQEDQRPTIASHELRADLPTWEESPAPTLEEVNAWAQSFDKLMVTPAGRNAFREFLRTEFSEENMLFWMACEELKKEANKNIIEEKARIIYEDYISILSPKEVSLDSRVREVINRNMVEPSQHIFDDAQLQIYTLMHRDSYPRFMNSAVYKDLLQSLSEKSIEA

Row | Variant | effect of a mutation on the interaction
26 | R83H | with no effect

Variants of: B5
Settings: with kra32_human KRTAP3-2, Q9BYR7
Sequence of kra32_human KRTAP3-2, Q9BYR7 (Q9BYR7 whole entry): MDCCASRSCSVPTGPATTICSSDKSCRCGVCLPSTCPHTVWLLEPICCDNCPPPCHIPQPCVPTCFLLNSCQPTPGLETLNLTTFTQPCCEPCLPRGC

Row | Variant | effect of a mutation on the interaction
27 | R83H | with no effect
